Measurements as given in patent publication US11168306B2, “Phage wrapping” (priority 2014, dated 2021).
Ends that are not written are not given here.

How the values were obtained:
PSMA dimer = PSMA dimer (Homo sapiens, UniProt Q04609); assay: Phage-based ELISA, binding to PSMA dimer
Description: In a phage-based ELISA, specific wells of a 96-well microtiter plate (Nunc Maxisorp) were coated with 100 μL/well of a solution of PSMA (5.56 or 11.1 nM) monomer or dimer protein diluted in PBS. The plate was incubated for 1 h on a shaker at room temperature. The coating solution was removed, and the wells were blocked with 320 μL/well of 0.2% w/v solution of BSA in PBS for 30 min, and washed three times with 300 μL/well of wash buffer PT (0.05% TWEEN-20 in PBS). […] The wells on the ELISA plate were then incubated with the phage samples (100 μL/well) for 1 h. The wells were washed five times with PT and then incubated with horseradish-peroxidase-conjugated anti-M13 antibody (100 μL/well, 1:5000 dilution in PBT) for 30 min. The wells were washed three times with PT, and two times with PBS. […] Following an appropriate incubation time, HRP activity was measured spectrophotometrically at 450 nm using a microtiter plate reader (Bio-Tek).
Phage-based wrapping ELISA: Phage (5 nM in 225 μL) and 2 μL of the purified cycloaddition reaction product, KCS-1/2 (308.7 μM) in water: acetonitrile (60:40), were mixed and serially diluted in PBT. […] Levels of phage binding were quantified as described above.

Solubility in water = assay type: physicochemical; conditions: previous studies
PSMA = PSMA (Homo sapiens, UniProt Q04609); assay: Electrochemical impedance biosensing with virus-PEDOT films; assay type: binding; conditions: PBF-TWEEN
Description: Biosensing with Virus-PEDOT Films. To explore whether these wrapped virus particles could be exploited to create virus-electrode biosensors with a higher sensitivity for PSMA, films of PEDOT were prepared on gold electrodes by electropolymerization in the presence of phage-2 (FIG. 28). […] SEM imaging confirms incorporation of phage into the bioaffinity matrix; both filament-like and less extended features having dimensions consistent with phage integrated as rope-like bundles into the polymer at various angles to the film (FIGS. 4B-4C) were observed. The KCS-1 wrapper was then applied in vitro simply by exposing the resultant phage-2 film for a short time to an aqueous solution of the wrapper. For the biosensing measurements, only the highest affinity ligand combination of phage-2 wrapped with KCS-1 was used, and it was studied in comparison to phage-2 films.
EIS To Quantify PSMA Binding. […] The real component of the impedance, R, in particular, increases upon PSMA binding. […] The films incorporating phage-2 wrapped with KCS-1 provide higher sensitivity for PSMA detection than films incorporating unwrapped phage-2 (FIG. 4F). For example, the relative impedance change, ΔR/Ro, at each concentration of PSMA is 3-fold higher. […]

PSMA dimer, sequence (Q04609 44-750 limits assumed): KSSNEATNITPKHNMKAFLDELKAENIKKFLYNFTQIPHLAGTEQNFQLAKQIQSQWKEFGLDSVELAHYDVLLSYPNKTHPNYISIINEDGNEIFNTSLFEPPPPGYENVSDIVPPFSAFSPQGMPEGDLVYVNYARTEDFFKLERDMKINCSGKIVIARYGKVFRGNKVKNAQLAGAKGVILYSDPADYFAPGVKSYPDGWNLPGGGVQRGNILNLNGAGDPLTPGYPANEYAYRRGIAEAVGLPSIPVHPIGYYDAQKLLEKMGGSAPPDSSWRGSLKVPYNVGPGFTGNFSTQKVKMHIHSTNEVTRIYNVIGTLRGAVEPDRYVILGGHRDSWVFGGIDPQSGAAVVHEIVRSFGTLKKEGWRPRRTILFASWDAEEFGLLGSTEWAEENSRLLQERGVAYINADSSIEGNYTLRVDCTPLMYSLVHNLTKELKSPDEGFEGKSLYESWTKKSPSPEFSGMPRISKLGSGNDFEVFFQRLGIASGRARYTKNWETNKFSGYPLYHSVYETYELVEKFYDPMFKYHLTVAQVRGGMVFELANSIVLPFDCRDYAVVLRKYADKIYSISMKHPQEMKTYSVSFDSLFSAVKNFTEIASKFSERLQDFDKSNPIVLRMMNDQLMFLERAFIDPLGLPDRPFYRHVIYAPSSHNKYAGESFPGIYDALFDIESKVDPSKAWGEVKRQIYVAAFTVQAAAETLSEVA
PSMA, sequence (Q04609 44-750): as the sequence (Q04609 44-750 limits assumed) above

Substance	relative binding affinity to PSMA dimer (PSMA dimer; phage-based ELISA)	solubility in water (Solubility in water)	increase in apparent affinity to PSMA versus other wrapper concentrations (PSMA dimer; 2.7 μM KCS-1, FIG. 7)	binding to PSMA by PEDOT film (negative controls) (PSMA)
peptide 1: PSMA-binding peptide ligand, amino acid sequence CALCEFLG (SEQ ID NO: 1)	much lower apparent affinity for PSMA than peptide 2	limited solubility in water	–	–
KCS-1: chemically synthesized wrapper: K14 oligolysine click-linked to PSMA ligand 1 (peptide 1 KKKKKKKKKKKKKK; peptide 2 KKKCALCEFLG; cysteine pairing not given here; also: K14 oligolysine click-linked to PSMA ligand 1)	–	–	~15%	no significant binding to PSMA
